The assay addresses T1, hNpr3 (Homo sapiens, UniProt P17342).
T1 construct: host or cells: FreeStyle293 cells (transient transfection)
T1 sequence (P17342 27-540 isoform P17342-2 limits assumed): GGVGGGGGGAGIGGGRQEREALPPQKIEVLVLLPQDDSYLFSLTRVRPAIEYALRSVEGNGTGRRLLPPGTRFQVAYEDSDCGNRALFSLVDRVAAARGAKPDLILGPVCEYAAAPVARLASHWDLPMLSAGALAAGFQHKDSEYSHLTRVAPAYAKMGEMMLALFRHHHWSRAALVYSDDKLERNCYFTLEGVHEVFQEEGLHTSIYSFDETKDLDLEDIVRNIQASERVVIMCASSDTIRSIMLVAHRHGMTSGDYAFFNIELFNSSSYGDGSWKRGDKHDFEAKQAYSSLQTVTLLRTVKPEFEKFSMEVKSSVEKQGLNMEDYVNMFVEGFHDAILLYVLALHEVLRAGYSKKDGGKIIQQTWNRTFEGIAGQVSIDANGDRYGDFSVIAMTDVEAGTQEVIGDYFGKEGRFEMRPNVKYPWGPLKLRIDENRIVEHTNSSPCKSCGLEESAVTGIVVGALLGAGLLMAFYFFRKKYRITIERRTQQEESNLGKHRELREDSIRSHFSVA
Briefly: Binding of biotin-labeled mMusclin to hNpr3-expressing FreeStyle293 cells (PE-labeled Streptavidin staining), with competition by unlabeled ligands. The settings on record: for change in the binding of labeled mMusclin in the presence of a known NPR3 ligand: competitor at 10 μM; for change in the binding of labeled mMusclin in the presence of a known NPR3 ligand / change in the binding of labeled mMusclin in the presence of the unlabeled protein: BK- or BC-labeled mMusclin 0.5 μg/ml, hNpr3-expressing FreeStyle293 cells; for change in the binding of labeled mMusclin in the presence of the unlabeled protein: competitor at 100 μg/ml; for binding of labeled mMusclin to cells transfected with hNpr3 expression vector: 0.5 μg/ml labeled mMusclin, 4° C. 30 minutes, 0.3 μg (Low) or 1.0 μg (high) hNpr3 vector per 1.0×10^6 FreeStyle293 cells. Here is the method: A hNpr3 expression vector (hNpr3/pCMV6-XL4, NM_000908 Clone #PL1154_A07) was purchased from OriGene. 0.3 μg (Low) or 1.0 μg (high) of the hNpr3 expression vector was transfected transiently per 1.0×10^6 FreeStyle293 cells by a conventional method; 48 hours later, the cells were collected and suspended in PBS-1.0% BSA at 5×10^6 cells/ml. A 1-ml portion of each cell lyzate was incubated with a final concentration of 0.5 μg/ml of BK-mMusclin or BC-mMusclin at 4° C. for 30 minutes; after 1 time of washing, the lyzate was stained with PE-labeled Streptavidin, and the cells bound to each Musclin were analyzed. Also, incubation was performed in the presence of 100 μg/ml full-length mMusclin, mCA, or His-Tyr-Cys-mMusclin, or 10 μM ANP (Atrial Natriuretic Peptide, Rat, Mouse), CANP (Atrial Natriuretic Peptide 4-23—NH2 Des-[Gln18 Ser19 Gly20 Leu21 Gly22], Rat), or LANP (Atrial Natriuretic Peptide 104-126 Des-[Cys105 Cys121], Rat) (Phoenix Pharmaceuticals, Inc.), whereby changes in the binding of labeled mMusclin were examined.

On to “Atrial Natriuretic Peptide 4-23—NH2 Des-[Gln18 Ser19 Gly20 Leu21 Gly22], Rat [CANP, reference compound]”, for which the “change in the binding of labeled mMusclin in the presence of a known NPR3 ligand” value (shortened to “change in the binding … of a known NPR3 ligand”) was “the binding nearly disappeared”.

“Atrial Natriuretic Peptide 104-126 Des-[Cys105 Cys121], Rat (SFGGRIDRIGAQSGLGNSFRY) [LANP, known ligand of the NPR3 molecule (Phoenix Pharmaceuticals, Inc.), reference compound]”: the “change in the binding … of a known NPR3 ligand” value is “the binding nearly disappeared”.

Turning to “Atrial Natriuretic Peptide, Rat, Mouse (SLRRSSCFGGRIDRIGAQSGLGCNSFRY) [ANP, known ligand of the NPR3 molecule (Phoenix Pharmaceuticals, Inc.), reference compound]”, the “change in the binding … of a known NPR3 ligand” value is given as “the binding nearly disappeared”.

For the molecule “mCA: C-Terminal mMusclin (mCA) protein, cleaved from thioredoxin fusion (SFSGFGSPLDRLSAGSVEHRGKQRKAVDHSKKRFGIPMDRIGRNRLSSSRG)”, the “change in the binding of labeled mMusclin in the presence of the unlabeled protein” value (“change in the binding … of the unlabeled protein” below) is listed as “the binding nearly disappeared”.

B1: musclin: skeletal muscle specific secretory protein (protein, UniProt P61366 28-133, looked up)
Osteocrin: VDVTTTEAFDSGVIDVQSTPTVREEKSATDLTAKLLLLDELVSLENDVIETKKKRSFSGFGSPLDRLSAGSVDHKGKQRKVVDHPKRRFGIPMDRIGRNRLSNSRG
On to B1, for which the “bindability of musclin to natriuretic peptide receptors (NPR1, NPR2, NPR3)” value (summary statement) was “binds specifically to the receptor NPR3”.

B2: BK-labeled mMusclin: labeled mMusclin incorporating about 5 molecules of biotin/1 molecule of mMusclin (Sulfo-NHS-LC-Biotin) (protein)
chain: LASQEFGTASLQSPPTAREEKSATELSAKLLRLDDLVSLENDVFETKKKRSFSGFGSPLDRLSAGSVEHRGKQRKAVDHSKKRFGIPMDRIGRNRLSSSRG
As to B2, the “binding of labeled mMusclin to cells transfected with hNpr3 expression vector” value is reported as “bound dependently on the amount of the hNpr3 gene introduced into the cells”.

B3: full-length mMusclin: purified full-length mouse musclin protein, cleaved from thioredoxin fusion, expressed in Escherichia coli (protein)
chain: LASQEFGTASLQSPPTAREEKSATELSAKLLRLDDLVSLENDVFETKKKRSFSGFGSPLDRLSAGSVEHRGKQRKAVDHSKKRFGIPMDRIGRNRLSSSRG
B3: the “change in the binding … of the unlabeled protein” value was “the binding nearly disappeared”.

B4: BC-labeled mMusclin: His-Tyr-Cys-mMusclin labeled with about 1 molecule of biotin at the introduced Cys residue (Maleimide PEO2 Biotin) (protein)
chain: MGSSHHHHHHSSGLVPYGCHMLASQEFGTASLQSPPTAREEKSATELSAKLLRLDDLVSLENDVFETKKKRSFSGFGSPLDRLSAGSVEHRGKQRKAVDHSKKRFGIPMDRIGRNRLSSSRG
For the molecule B4, the “binding of labeled mMusclin to cells transfected with hNpr3 expression vector” value is on record as “bound dependently on the amount of the hNpr3 gene introduced into the cells”.

B5: His-Tyr-Cys-mMusclin: His-tag Tyr Cys mouse musclin protein, ORF of SEQ ID NO:8 (protein)
chain: MGSSHHHHHHSSGLVPYGCHMLASQEFGTASLQSPPTAREEKSATELSAKLLRLDDLVSLENDVFETKKKRSFSGFGSPLDRLSAGSVEHRGKQRKAVDHSKKRFGIPMDRIGRNRLSSSRG
modifications: His-tag, Tyr, Cys
Take B5: the “change in the binding … of the unlabeled protein” value was “the binding nearly disappeared”.

The values are drawn from patent publication US20110104705A1, “Musclin receptor and use thereof” (Takeda Pharmaceutical Company Limited, priority 2006, published 2011).
